Source: US20220040297A1 (Chugai, published 2022)
Where a chain is given by its changes, count along the chain named. Each block holds one binder with its values, some of them ahead of it.

Biological target: CD3ε homodimer protein (human, UniProt P07766 23-126, limits assumed)
Assay: SPR, immobilized CD3ε homodimer;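 also: biacore T200 surface plasmon resonance at 25 °C, antibody variants flowed as analytes over amine-coupled CD3ε homodimer on a CM4 chip, variant binding amount divided by that of GLS3000 antibody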
Protocol: Each one-amino acid altered form constructed, expressed, and purified in the paragraph (6-2) was evaluated using Biacore T200 (GE Healthcare Japan Corp.). An appropriate amount of CD3ε homodimer protein was immobilized onto Sensor chip CM4 (GE Healthcare Japan Corp.) by the amine coupling method. Then, the antibody having an appropriate concentration was injected thereto as an analyte and allowed to interact with the CD3ε homodimer protein on the sensor chip. Then, the sensor chip was regenerated by the injection of 10 mmol/L glycine-HCl (pH 1.5). The assay was conducted at 25° C., and HBS-EP+ (GE Healthcare Japan Corp.) was used as a running buffer. […] Each parameter was calculated using Biacore T200 Evaluation Software (GE Healthcare Japan Corp.).
Specifically, when the amount of the GLS3000-containing antibody bound was defined as X and the amount of the L chain one-amino acid altered form bound was defined as Y, a value of Z (ratio of amounts bound)=Y/X was used.

Chain of CD3ε homodimer protein (P07766 23-126 limits assumed): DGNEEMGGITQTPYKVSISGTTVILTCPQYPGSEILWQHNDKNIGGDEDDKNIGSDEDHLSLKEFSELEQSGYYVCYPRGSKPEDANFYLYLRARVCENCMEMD

ratio of amounts bound (vs GLS3000): 0.24
B1: GLS3000 K50Y (antibody, name in Kabat numbering, V domains shown)
VH: QVQLVESGGGVVQPGRSLRLSCAASGFTFSNAWMHWVRQAPGKGLEWVAQIKAKSNNYATYYAESVKGRFTISRDDSKNSLYLQMNSLKTEDTAVYYCRYVHYGAYYGVDAWGQGTTVTVSS
VL: DIVMTQSPLSLPVTPGEPASISCRSSQSLVHSNRNTYLHWYQQKPGQAPRLLIYYVSNRFSGVPDRFSGSGSGTDFTLKISRVEAEDVGVYYCGQGTQVPYTFGQGTKLEIK
notes: one-arm format as m2

ratio of amounts bound (vs GLS3000): 1.05
B2: GLS3000 L33V (antibody, name in Kabat numbering, V domains shown)
VH: B1 VH
VL: B1 VL with L38V, Y55K
notes: one-arm format as m2

ratio of amounts bound (vs GLS3000): 0.25
B3: GLS3000 N28A (antibody, name in Kabat numbering, V domains shown)
VH: B1 VH
VL: B1 VL with N33A, Y55K
notes: one-arm format as m2

ratio of amounts bound (vs GLS3000): 0.61
B4: GLS3000 N30I (antibody, name in Kabat numbering, V domains shown)
VH: B1 VH
VL: B1 VL with N35I, Y55K
notes: one-arm format as m2

ratio of amounts bound (vs GLS3000): 0.3
B5: GLS3000 L33P (antibody, name in Kabat numbering, V domains shown)
VH: B1 VH
VL: B1 VL with L38P, Y55K
notes: one-arm format as m2

ratio of amounts bound (vs GLS3000): 0.93
B6: GLS3000 L33M (antibody, name in Kabat numbering, V domains shown)
VH: B1 VH
VL: B1 VL with L38M, Y55K
notes: one-arm format as m2

ratio of amounts bound (vs GLS3000): 0.26
B7: GLS3000 N28Y (antibody, name in Kabat numbering, V domains shown)
VH: B1 VH
VL: B1 VL with N33Y, Y55K
notes: one-arm format as m2

ratio of amounts bound (vs GLS3000): 0.44
B8: GLS3000 N28I (antibody, name in Kabat numbering, V domains shown)
VH: B1 VH
VL: B1 VL with N33I, Y55K
notes: one-arm format as m2

ratio of amounts bound (vs GLS3000): 0.94
B9: GLS3000 K107E (antibody, name in Kabat numbering, V domains shown)
VH: B1 VH
VL: B1 VL with Y55K, K112E
notes: one-arm format as m2

ratio of amounts bound (vs GLS3000): 0.83
B10: GLS3000 L33I (antibody, name in Kabat numbering, V domains shown)
VH: B1 VH
VL: B1 VL with L38I, Y55K
notes: one-arm format as m2

ratio of amounts bound (vs GLS3000): 0.4
B11: GLS3000 N28E (antibody, name in Kabat numbering, V domains shown)
VH: B1 VH
VL: B1 VL with N33E, Y55K
notes: one-arm format as m2

ratio of amounts bound (vs GLS3000): 0.36
B12: GLS3000 N28V (antibody, name in Kabat numbering, V domains shown)
VH: B1 VH
VL: B1 VL with N33V, Y55K
notes: one-arm format as m2

ratio of amounts bound (vs GLS3000): 0.32
B13: GLS3000 N28S (antibody, name in Kabat numbering, V domains shown)
VH: B1 VH
VL: B1 VL with N33S, Y55K
notes: one-arm format as m2

ratio of amounts bound (vs GLS3000): 0.47
B14: GLS3000 N30G (antibody, name in Kabat numbering, V domains shown)
VH: B1 VH
VL: B1 VL with N35G, Y55K
notes: one-arm format as m2

ratio of amounts bound (vs GLS3000): 0.78
B15: GLS3000 L33F (antibody, name in Kabat numbering, V domains shown)
VH: B1 VH
VL: B1 VL with L38F, Y55K
notes: one-arm format as m2

ratio of amounts bound (vs GLS3000): 0.72
B16: GLS3000 L33E (antibody, name in Kabat numbering, V domains shown)
VH: B1 VH
VL: B1 VL with L38E, Y55K
notes: one-arm format as m2

ratio of amounts bound (vs GLS3000): 0.19
B17: GLS3000 N28D (antibody, name in Kabat numbering, V domains shown)
VH: B1 VH
VL: B1 VL with N33D, Y55K
notes: one-arm format as m2

ratio of amounts bound (vs GLS3000): 1.19
B18: GLS3000 L27bI (antibody, name in Kabat numbering, V domains shown)
VH: B1 VH
VL: B1 VL with L29I, Y55K
notes: one-arm format as m2

ratio of amounts bound (vs GLS3000): 0.39
B19: GLS3000 N28M (antibody, name in Kabat numbering, V domains shown)
VH: B1 VH
VL: B1 VL with N33M, Y55K
notes: one-arm format as m2

ratio of amounts bound (vs GLS3000): 0.45
B20: GLS3000 N28T (antibody, name in Kabat numbering, V domains shown)
VH: B1 VH
VL: B1 VL with N33T, Y55K
notes: one-arm format as m2

ratio of amounts bound (vs GLS3000): 0.25
B21: GLS3000 L27bY (antibody, name in Kabat numbering, V domains shown)
VH: B1 VH
VL: B1 VL with L29Y, Y55K
notes: one-arm format as m2

ratio of amounts bound (vs GLS3000): 0.98
B22: GLS3000 N30H (antibody, name in Kabat numbering, V domains shown)
VH: B1 VH
VL: B1 VL with N35H, Y55K
notes: one-arm format as m2

ratio of amounts bound (vs GLS3000): 0.17
B23: GLS3000 L27bD (antibody, name in Kabat numbering, V domains shown)
VH: B1 VH
VL: B1 VL with L29D, Y55K
notes: one-arm format as m2

ratio of amounts bound (vs GLS3000): 0.46
B24: GLS3000 N28G (antibody, name in Kabat numbering, V domains shown)
VH: B1 VH
VL: B1 VL with N33G, Y55K
notes: one-arm format as m2

ratio of amounts bound (vs GLS3000): 0.34
B25: GLS3000 N30D (antibody, name in Kabat numbering, V domains shown)
VH: B1 VH
VL: B1 VL with N35D, Y55K
notes: one-arm format as m2

ratio of amounts bound (vs GLS3000): 0.5
B26: GLS3000 N30A (antibody, name in Kabat numbering, V domains shown)
VH: B1 VH
VL: B1 VL with N35A, Y55K
notes: one-arm format as m2

ratio of amounts bound (vs GLS3000): 0.71
B27: GLS3000 L27bS (antibody, name in Kabat numbering, V domains shown)
VH: B1 VH
VL: B1 VL with L29S, Y55K
notes: one-arm format as m2

ratio of amounts bound (vs GLS3000): 0.91
B28: GLS3000 L27bP (antibody, name in Kabat numbering, V domains shown)
VH: B1 VH
VL: B1 VL with L29P, Y55K
notes: one-arm format as m2

ratio of amounts bound (vs GLS3000): 0.42
B29: GLS3000 N28H (antibody, name in Kabat numbering, V domains shown)
VH: B1 VH
VL: B1 VL with N33H, Y55K
notes: one-arm format as m2

ratio of amounts bound (vs GLS3000): 1.1
B30: GLS3000 N30F (antibody, name in Kabat numbering, V domains shown)
VH: B1 VH
VL: B1 VL with N35F, Y55K
notes: one-arm format as m2

ratio of amounts bound (vs GLS3000): 0.44
B31: GLS3000 N28K (antibody, name in Kabat numbering, V domains shown)
VH: B1 VH
VL: B1 VL with N33K, Y55K
notes: one-arm format as m2

ratio of amounts bound (vs GLS3000): 0.36
B32: GLS3000 N28P (antibody, name in Kabat numbering, V domains shown)
VH: B1 VH
VL: B1 VL with N33P, Y55K
notes: one-arm format as m2

ratio of amounts bound (vs GLS3000): 0.44
B33: GLS3000 N30E (antibody, name in Kabat numbering, V domains shown)
VH: B1 VH
VL: B1 VL with N35E, Y55K
notes: one-arm format as m2

ratio of amounts bound (vs GLS3000): 0.17
B34: GLS3000 L27bE (antibody, name in Kabat numbering, V domains shown)
VH: B1 VH
VL: B1 VL with L29E, Y55K
notes: one-arm format as m2

ratio of amounts bound (vs GLS3000): 0.85
B35: GLS3000 L33A (antibody, name in Kabat numbering, V domains shown)
VH: B1 VH
VL: B1 VL with L38A, Y55K
notes: one-arm format as m2

ratio of amounts bound (vs GLS3000): 0.26
B36: GLS3000 L27bW (antibody, name in Kabat numbering, V domains shown)
VH: B1 VH
VL: B1 VL with L29W, Y55K
notes: one-arm format as m2

ratio of amounts bound (vs GLS3000): 0.39
B37: GLS3000 N28L (antibody, name in Kabat numbering, V domains shown)
VH: B1 VH
VL: B1 VL with N33L, Y55K
notes: one-arm format as m2

ratio of amounts bound (vs GLS3000): 0.17
B38: GLS3000 L33D (antibody, name in Kabat numbering, V domains shown)
VH: B1 VH
VL: B1 VL with L38D, Y55K
notes: one-arm format as m2

ratio of amounts bound (vs GLS3000): 0.42
B39: GLS3000 L27bF (antibody, name in Kabat numbering, V domains shown)
VH: B1 VH
VL: B1 VL with L29F, Y55K
notes: one-arm format as m2

ratio of amounts bound (vs GLS3000): 0.71
B40: GLS3000 L27bM (antibody, name in Kabat numbering, V domains shown)
VH: B1 VH
VL: B1 VL with L29M, Y55K
notes: one-arm format as m2

ratio of amounts bound (vs GLS3000): 1.65
B41: GLS3000 N30K (antibody, name in Kabat numbering, V domains shown)
VH: B1 VH
VL: B1 VL with N35K, Y55K
notes: one-arm format as m2

ratio of amounts bound (vs GLS3000): 0.37
B42: GLS3000 N28Q (antibody, name in Kabat numbering, V domains shown)
VH: B1 VH
VL: B1 VL with N33Q, Y55K
notes: one-arm format as m2

ratio of amounts bound (vs GLS3000): 1.12
B43: GLS3000 L27bV (antibody, name in Kabat numbering, V domains shown)
VH: B1 VH
VL: B1 VL with L29V, Y55K
notes: one-arm format as m2

ratio of amounts bound (vs GLS3000): 0.84
B44: GLS3000 K74T (antibody, name in Kabat numbering, V domains shown)
VH: B1 VH
VL: B1 VL with Y55K, K79T
notes: one-arm format as m2

ratio of amounts bound (vs GLS3000): 0.46
B45: GLS3000 N28F (antibody, name in Kabat numbering, V domains shown)
VH: B1 VH
VL: B1 VL with N33F, Y55K
notes: one-arm format as m2

ratio of amounts bound (vs GLS3000): 0.41
B46: GLS3000 N28W (antibody, name in Kabat numbering, V domains shown)
VH: B1 VH
VL: B1 VL with N33W, Y55K
notes: one-arm format as m2
